The target in test [1] is T1, Commercially purified human Syndecan (ectodomain)-4-Fc (human, UniProt P31431 19-145).
T1 chain: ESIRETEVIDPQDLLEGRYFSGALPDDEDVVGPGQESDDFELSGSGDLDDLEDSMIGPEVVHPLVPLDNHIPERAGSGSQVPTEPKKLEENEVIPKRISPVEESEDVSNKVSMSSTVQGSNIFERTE
Description: zero force, optical tweezers, with TRAIL-R2-Fc control on the bead.

The target in test [2] is T2, Recombinant αVβ3-Fc integrin (UniProt P06756 31-992; P05106 27-718).
T2 chain 1: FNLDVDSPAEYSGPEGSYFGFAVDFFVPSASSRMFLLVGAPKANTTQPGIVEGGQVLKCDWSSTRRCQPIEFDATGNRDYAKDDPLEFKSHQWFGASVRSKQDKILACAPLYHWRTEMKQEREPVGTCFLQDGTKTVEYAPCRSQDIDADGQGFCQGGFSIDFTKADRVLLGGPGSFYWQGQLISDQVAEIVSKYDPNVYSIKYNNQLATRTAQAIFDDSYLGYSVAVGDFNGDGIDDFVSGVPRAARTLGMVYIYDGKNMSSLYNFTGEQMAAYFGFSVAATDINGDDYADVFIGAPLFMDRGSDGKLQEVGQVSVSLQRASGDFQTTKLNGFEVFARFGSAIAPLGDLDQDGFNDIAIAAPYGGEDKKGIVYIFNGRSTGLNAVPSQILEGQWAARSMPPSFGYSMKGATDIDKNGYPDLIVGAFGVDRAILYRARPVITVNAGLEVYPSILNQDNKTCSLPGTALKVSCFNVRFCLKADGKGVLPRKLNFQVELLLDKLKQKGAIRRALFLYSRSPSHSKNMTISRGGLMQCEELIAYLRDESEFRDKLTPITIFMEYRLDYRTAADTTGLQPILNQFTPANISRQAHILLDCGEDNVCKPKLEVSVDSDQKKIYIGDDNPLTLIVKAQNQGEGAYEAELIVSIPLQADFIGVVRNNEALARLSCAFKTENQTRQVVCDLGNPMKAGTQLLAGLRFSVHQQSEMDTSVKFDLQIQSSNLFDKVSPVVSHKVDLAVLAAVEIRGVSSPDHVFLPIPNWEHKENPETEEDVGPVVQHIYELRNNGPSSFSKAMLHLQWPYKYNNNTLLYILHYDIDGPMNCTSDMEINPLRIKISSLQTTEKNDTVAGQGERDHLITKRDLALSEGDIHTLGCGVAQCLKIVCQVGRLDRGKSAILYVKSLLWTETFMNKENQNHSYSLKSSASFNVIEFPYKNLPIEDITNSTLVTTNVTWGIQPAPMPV
T2 chain 2: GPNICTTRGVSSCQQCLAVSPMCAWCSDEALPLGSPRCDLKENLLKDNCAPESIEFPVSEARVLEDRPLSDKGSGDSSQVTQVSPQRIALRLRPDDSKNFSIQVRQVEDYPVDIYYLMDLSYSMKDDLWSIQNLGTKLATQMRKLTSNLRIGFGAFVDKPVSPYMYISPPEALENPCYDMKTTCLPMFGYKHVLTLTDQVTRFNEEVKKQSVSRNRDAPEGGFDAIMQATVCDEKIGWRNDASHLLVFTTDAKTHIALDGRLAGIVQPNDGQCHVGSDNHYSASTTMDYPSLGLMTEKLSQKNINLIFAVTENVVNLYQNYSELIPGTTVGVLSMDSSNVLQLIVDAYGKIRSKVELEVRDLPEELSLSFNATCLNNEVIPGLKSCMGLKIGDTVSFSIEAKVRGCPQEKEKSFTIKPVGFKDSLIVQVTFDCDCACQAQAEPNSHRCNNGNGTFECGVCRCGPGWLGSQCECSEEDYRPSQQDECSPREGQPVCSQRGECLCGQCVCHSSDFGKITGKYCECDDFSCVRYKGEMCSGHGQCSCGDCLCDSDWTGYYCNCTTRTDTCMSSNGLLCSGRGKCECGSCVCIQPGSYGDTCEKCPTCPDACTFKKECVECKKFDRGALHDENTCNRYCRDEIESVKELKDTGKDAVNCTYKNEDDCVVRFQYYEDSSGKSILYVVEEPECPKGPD
The description is as above.

Test [3] deals with T3, αVβ3-Fc + Syndecan-4-Fc (both on one bead) ( | human, UniProt P06756 31-992; P05106 27-718; P31431 19-145).
T3 chain 1: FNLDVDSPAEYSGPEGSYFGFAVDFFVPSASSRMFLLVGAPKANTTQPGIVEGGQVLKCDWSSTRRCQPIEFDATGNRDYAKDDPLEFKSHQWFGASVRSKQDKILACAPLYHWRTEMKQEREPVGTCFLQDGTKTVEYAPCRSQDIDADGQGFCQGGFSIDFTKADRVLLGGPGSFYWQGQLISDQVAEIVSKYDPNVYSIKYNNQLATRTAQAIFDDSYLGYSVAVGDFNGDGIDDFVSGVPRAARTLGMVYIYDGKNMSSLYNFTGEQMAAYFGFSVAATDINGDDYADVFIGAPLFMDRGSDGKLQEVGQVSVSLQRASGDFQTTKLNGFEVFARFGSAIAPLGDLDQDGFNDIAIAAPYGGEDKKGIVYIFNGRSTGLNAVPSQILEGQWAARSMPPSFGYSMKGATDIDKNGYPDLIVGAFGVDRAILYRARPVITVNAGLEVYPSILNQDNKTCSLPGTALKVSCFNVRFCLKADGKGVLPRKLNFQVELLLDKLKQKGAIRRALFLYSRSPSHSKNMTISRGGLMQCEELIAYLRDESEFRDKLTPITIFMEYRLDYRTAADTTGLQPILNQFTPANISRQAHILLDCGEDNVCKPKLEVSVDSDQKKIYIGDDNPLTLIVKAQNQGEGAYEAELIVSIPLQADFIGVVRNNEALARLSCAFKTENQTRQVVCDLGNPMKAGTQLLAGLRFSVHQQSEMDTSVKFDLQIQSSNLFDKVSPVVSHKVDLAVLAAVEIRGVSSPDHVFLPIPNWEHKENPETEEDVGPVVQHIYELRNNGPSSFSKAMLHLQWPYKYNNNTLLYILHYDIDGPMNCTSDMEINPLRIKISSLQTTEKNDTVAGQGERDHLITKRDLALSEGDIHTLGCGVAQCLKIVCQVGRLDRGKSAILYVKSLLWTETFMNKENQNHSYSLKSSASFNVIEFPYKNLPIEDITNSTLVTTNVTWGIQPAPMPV
T3 chain 2: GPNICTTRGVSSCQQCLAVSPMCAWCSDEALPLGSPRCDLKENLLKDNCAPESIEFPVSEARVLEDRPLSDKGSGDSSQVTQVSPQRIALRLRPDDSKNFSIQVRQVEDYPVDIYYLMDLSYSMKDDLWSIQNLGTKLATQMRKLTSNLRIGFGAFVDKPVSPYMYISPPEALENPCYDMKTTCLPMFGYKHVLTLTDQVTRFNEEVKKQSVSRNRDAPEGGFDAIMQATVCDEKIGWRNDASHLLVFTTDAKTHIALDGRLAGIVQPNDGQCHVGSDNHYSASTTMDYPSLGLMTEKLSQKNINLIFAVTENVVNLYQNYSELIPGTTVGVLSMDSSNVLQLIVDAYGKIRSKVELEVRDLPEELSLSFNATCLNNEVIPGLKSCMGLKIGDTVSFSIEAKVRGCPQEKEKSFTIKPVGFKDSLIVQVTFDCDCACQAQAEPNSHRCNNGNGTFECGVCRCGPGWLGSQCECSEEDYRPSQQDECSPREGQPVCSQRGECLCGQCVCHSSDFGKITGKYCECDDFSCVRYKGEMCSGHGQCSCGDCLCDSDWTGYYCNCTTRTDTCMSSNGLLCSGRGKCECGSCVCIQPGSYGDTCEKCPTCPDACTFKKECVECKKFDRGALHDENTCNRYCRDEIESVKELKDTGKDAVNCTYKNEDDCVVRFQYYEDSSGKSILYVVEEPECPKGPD
T3 chain 3: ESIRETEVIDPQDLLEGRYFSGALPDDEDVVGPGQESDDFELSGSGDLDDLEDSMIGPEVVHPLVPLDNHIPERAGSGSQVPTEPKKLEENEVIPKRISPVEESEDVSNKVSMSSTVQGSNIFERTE
Nature of the test: zero force, optical tweezers, both αvβ3-Fc and Syndecan-4-Fc on the bead.

Test [4] deals with T1, Commercially purified human Syndecan …. Nature of the test: zero force, optical tweezers.
Test [5] concerns the target T2, Recombinant αVβ3-Fc integrin. Description: zero force, optical tweezers.

B1: Thy-1-Fc wild type (Fc fusion)
chain: QKVTSLTACLVNQNLRLDCRHENNTKDNSIQHEFSLTREKRKHVLSGTLGIPEHTYRSRVTLSNQPYIKVLTLANFTTKDEGDYFCELQVSGANPMSSNKSISVYRDKLVKC
Turning to B1, the koff was 0.28 s⁻¹ in test [1]; 0.15 s⁻¹ in test [2]; 0.08 s⁻¹ in test [3]; 0.32 s⁻¹ in test [4]; 0.14 s⁻¹ in test [5].

The values above are taken from paper PMC7550751, “Application of Force to a Syndecan-4 Containing Complex With Thy-1–αVβ3 Integrin Accelerates Neurite Retraction” (Frontiers in Molecular Biosciences, 2020).
